Data on 30 sequences can be found in the nanobody polyreactivity screen of Harvey et al. (2022).

The series is described as follows: yeast display, Sf9 membrane polyspecificity reagent, FACS + sequencing; frameworks hold sequencing errors. In short, it runs like this: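 Genes from sorted yeast were amplified by colony PCR, read by MiSeq 2 × 250 sequencing and filtered on CDR length. These cells carried a synthetic nanobody library in Saccharomyces cerevisiae BJ5465 and were sorted by FACS into low and high (top ~1%) gates on anti-HA and streptavidin fluorescence. Polyreactivity is labelled according to the gate of origin.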
Regarding “QVQLVESGGGLVQAVGSLRLSCASSGNTFGPNAMGWYRQAPGKERELVAAIRWRGGSTYYADSVKGRFTISRDYAKNTVYLQMNSLKPVDNAVYYCAAGIHSPTYRTGTTYVDYDYWGQGTQVTVSS”, the “polyreactivity (PSR sort gate)” value was “high polyreactivity”.

As for “QVQLVESGGGLVQAVGSLRLSCDASGSTFYPYAIGWYRQAPAKESELVARITRGVGSTYYADSVKGRFTISRDNAKNTVYLQMNSLIPEDTAVYYCNRVEYFTVWGYDYWGQGTQVTVSS”, the “polyreactivity (PSR sort gate)” value was “low polyreactivity”. Turning to “QVQLVESGGGLVQAVGSLRLSSAASRSTFGLNAMGWYRQAPGKESELVAAITFSGGSTYYADSVKGRFTISRDNANNTVYLQKNSLKPEDTAVYYCAARFSLEGGYYWGQGTQVTVSS”, the “polyreactivity (PSR sort gate)” value is listed as “low polyreactivity”.

As to “QVQLVESGGGLVQAVRSRRLSSAASGSIFYFYPMGWYRQAPGKDREFVAAISSGGSTYYSDSVKGRFTNSRDNAKYTVYLQMNSLKPEDTAVYYCAAVSLYYRYDFWGQGTQVTVSS”, the “polyreactivity (PSR sort gate)” value is on record as “low polyreactivity”. Then “QVQLVESGGGLVQDGGSLPLSCAASGHIFIYYTMGWYRQAPGKERELVAGITIGGSTNYADSVKGRFTISRDNAQNTVYLQMNSLKPEDTAVYYCSTTWYLVASWYVAIFDYWGQGTQVTVSS”, with “low polyreactivity”; and “QVQLVESGGGLVQEGASLRLSCAASGFIFLQYAMGWYRQAPGKERELVAAITSGGGTNYADSVKGRFTISRDNAKNTVYLQMNSLKPEDTAVYYCAARTWPWVLGATQDDYWGQGTQVTVSS”, with “low polyreactivity”; and “QVQLVESGGGLVQEGGSLRISCASSGFIFASYAMAWYIQAPGKERELVAAITQSGGITYYADSVKERFTISRDNAKYTVYLQMNSLKPEDTAVFYCNTPLLKRTTRCRERNYWGQGTQVTVSS”, with “low polyreactivity”.

In the case of “QVQLVESGGGLVQEGGSLRLICAASGFIFRYYAMGWYRQAPGKERELVAAISRSGGSTSYADSVKGRFTISRDNAKITGDFQMNSLKPEDSAVYYCAKYVAFHYKQYDFNWGQGTQVYVSS”, the “polyreactivity (PSR sort gate)” value is reported as “high polyreactivity”.

Take “QVQLVESGGGLVQEGGSLRLICAASGRTFYPNAMGWYRQAPGKERELVADITYSGASTYYADSVKGRFTISRDYAKNTVYLQMNSLKPEDTAVYYCNADDSCVLVYVPYDYWGQGTQVTVSS”: the “polyreactivity (PSR sort gate)” value was “low polyreactivity”. As for “QVQLVESGGGLVQEGGSLRLICAASGSIFEVNAMGWYRQAPGKERELAATITYSGGSTYYADSVKGRFTISRDNAKNTVYFQMNSLKPEDTAVYYCATDYVDWELYIYDYWGQGTQVTVSS”, the “polyreactivity (PSR sort gate)” value is “low polyreactivity”. Then “QVQLVESGGGLVQEGGSLRLICSASGSTFRANAMGWYRQAPGKERELVAAITSSGGSTYYADSVKGRFTISRDNAKNTVYLQMNSLKPEDTAVYYCAKENAPSRLTYGYWGQGTQVTVSS”, with “low polyreactivity”. The same measure for “QVQLVESGGGLVQEGGSLRLSCAASASTLYKYAMGWYRQAPGKERELVAAISWSGSSTYYADSVKGRFTISRDNAKNTVYLQMNSLKPEDTAVYYCNARWQEPLKYDYWGQGTQVTVSS”: “low polyreactivity”; for “QVQLVESGGGLVQEGGSLRLSCAASGFIFGWYAMGWYRQAPGKERELVATISSSGGSTYYADSVKGRFTISRDNAKNTVYLQMNSLKPEDTAVYYCAARPRRYYSAQDMDYWGQGTQVTVSS”: “high polyreactivity”. The same measure for “QVQLVESGGGLVQEGGSLRLSCAASGFIFGWYGMGWYRQPPGKDSELFAAITWSGVRTYYADSVKGRFTISRDNAKNTVYLQMISLKPEDTAVYYCARAGGYVGRGYKDQDGRGDYWGQGTQVTVSS”: “high polyreactivity”; for “QVQLVESGGGLVQEGGSLRLSCAASGFTFRYYAMGWYRQAPGKERELVAAIRWNGGSTYYADSVKGRFTISRDNAKNTVYLQMNRLKPEDTAVYYCNAAYSYGRYEYVYWGQGTQVTVSS”: “high polyreactivity”. For “QVQLVESGGGLVQEGGSLRLSCAASGFTFVGYAMGWYRQAPGKERELLASIPWGGDRTYYADTVKGRFTISRDNAKNTDYLQMNSLKPEDTAVYYCNAQYEIWRVTFSPYDRWGYDYWGQGTQVTVSS”, the “polyreactivity (PSR sort gate)” value is given as “low polyreactivity”.

“QVQLVESGGGLVQEGGSLRLSCAASGIIFSIYAMGWYRQAPGKERELVAVISRSSGSTYYADSVKGRFTISRDNAKNTVYLQMNSLIPEDTSVYFCAARKNRAYGYWGQGTEVTVSS”: the “polyreactivity (PSR sort gate)” value was “high polyreactivity”. For “QVQLVESGGGLVQEGGSLRLSCAASGITFGRYAMGWYRQAPGKERELVAAISWSGGSTYYADSVKGRFTISRDNAKITVYLQMNSLKPEDTAVYSCNARGFPGKFGYWGQGTQVTVSS”, the “polyreactivity (PSR sort gate)” value was “high polyreactivity”.

Turning to “QVQLVESGGGLVQEGGSLRLSCAASGITFKTYAMGWYRQAPGKESELVATINRGSRTNYADPVKGRFTISRDNAKNTVYLQMNSLKPEDTAVYYCAAHYTTFIPSPDGDYLGQGTQVTVSS”, the “polyreactivity (PSR sort gate)” value is on record as “low polyreactivity”. The same measure for “QVQLVESGGGLVQEGGSLRLSCAASGLIFGENAMGWYRQAPGKERELVAAISRRAGITYYADSVKGRFTISRDNAKNTVYLQMNSLKPVDTAVYYCAARKGAISSPYDYWGQGTQVTVSS”: “high polyreactivity”. Then “QVQLVESGGGLVQEGGSLRLSCAASGLTFAGYAMGWYRQATGKERELVAAITTGGSTYYADSVNGRFTISRDNAKNTVYLQMNSLKPEDTAVYYCAARRVRKALVGYGYWGQGTQVTVSS”, with “high polyreactivity”. As for “QVQLVESGGGLVQEGGSLRLSCAASGLTFFPYAMGWYRQAPGKERELVAAITTSDGTTYYADSVKGRFTISRDNAKNTVYLQMNSLKPEDTAVYYCAAVYSPRSVWWYDYWGQGTEVTVSS”, the “polyreactivity (PSR sort gate)” value is on record as “low polyreactivity”. Then “QVQLVESGGGLVQEGGSLRLSCAASGLTFSPYAMGWYRQAPGKERELVATITIGGSTKYADSVKGRFTISRDNAKNTVYLQMNSLKPEDTAVYYCAVRSGYVTRRYDYWGQGTQVTVSS”, with “low polyreactivity”; and “QVQLVESGGGLVQEGGSLRLSCAASGRIFDVYVMGWYRQAPGKERELVDAISQSGGRTYYADSVKGRFTISRDNAKNTVYLQMNSLKPEDTAVYYCNTVTSLATNFSGFGYWGQGTQVTVSS”, with “high polyreactivity”; and “QVQLVESGGGLVQEGGSLRLSCAASGRIFGTNAMGWYRQAPGKERELVAAISRSGGSTYYADSVKGRFTISRDNAKNTVYLQMNSLKPEDTAVYYCATDGRHTYYYWGQGTQVTVSS”, with “high polyreactivity”.

Take “QVQLVESGGGLVQEGGSLRLSCAASGRIFKPYVMGWYRQAPGKERELVAAISWSGGASTYYADSVKGRFTISRENAKNTVYLQMNSLKPEDTAVYYCNAAKRNRYDYWGQGTQVTVSS”: the “polyreactivity (PSR sort gate)” value was “low polyreactivity”.

Regarding “QVQLVESGGGLVQEGGSLRLSCAASGRIFPKYAMGWYRQAPAKERELVAAISQRGGSTYYADSVKGRFTISRDNAKNTVYLQMNSLKPEDTAVYYCAASYYRQSCEYDYWGQGTQVTVSS”, the “polyreactivity (PSR sort gate)” value is given as “low polyreactivity”. For the sequence “QVQLVESGGGLVQEGGSLRLSCAASGRISVRYGMGWYRQAPGKERELVATISQSGGSTYYADSVKGRFTISRDNAKNTVYLQMNSLKPEDTAVYYCAAETDYVRHARKYDFWGQGTQVTVAS”, the “polyreactivity (PSR sort gate)” value was “low polyreactivity”. Consider “QVQLVESGGGLVQEGGSLRLSCAASGRNFDVNAMGWYRQAPGKERELDAAISSGGNTKYSDSVKGRFTISRDKSKNTVYLQMNSLKPVDSAVYYCKADGKAGGDYDYWVQGTQVTVSS”, for which the “polyreactivity (PSR sort gate)” value was “low polyreactivity”. In the case of “QVQLVESGGGLVQEGGSLRLSCAASGRNFGRYAMVRYRQAPGKERELVAAISSSGVATYYADSVKGRFTISRDNAKNTVYLQMNSLKPEDTEVYYCNSLYRVFYGFYYWGQGTQVTVSS”, the “polyreactivity (PSR sort gate)” value is given as “high polyreactivity”.
